Source: patent US20260139055A1
Substitutions are numbered along the chain they refer to. Names and notes keep the numbering of the source.

B1: canine IgGB (65) mAb with mutation T286K (antibody, part only; not given: Variable domains, not shown: another chain or arm of the molecule)
constant: ASTTAPSVFPLAPSCGSTSGSTVALACLVSGYFPEPVTVSWNSGSLTSGVHTFPSVLQSSGLYSLSSMVTVPSSRWPSETFTCNVAHPASKTKVDKPVPKRENGRVPRPPDCPKCPAPEMLGGPSVFIFPPKPKDTLLIARTPEVTCVVVDLDPEDPEVQISWFVDGKQMQKAKTQPREEQFNGTYRVVSVLPIGHQDWLKGKQFTCKVNNKALPSPIERTISKARGQAHQPSVYVLPPSREELSKNTVSLTCLIKDFFPPDIDVEWQSNGQQEPESKYRTTPPQLDEDGSYFLYSKLSVDKSRWQRGDTFICAVMHEALHNHYTQESLSHSPGK
B2: canine IgGB (65) mAb with mutation Y436S (antibody, part only; not given: variable domains of unnamed mAb, not shown: another chain or arm of the molecule)
constant: B1 constant with K172T, Y324S
B3: canine IgGB (65) mAb with mutation T286M (antibody, part only; not given: variable domains of unnamed mAb, not shown: another chain or arm of the molecule)
constant: B1 constant with K172M
B4: canine IgGB (65) mAb with mutation Y436T (antibody, part only; not given: Variable domains, not shown: another chain or arm of the molecule)
constant: B1 constant with K172T, Y324T
B5: canine IgGB (65) mAb with mutation Y436W (antibody, part only; not given: variable domains of unnamed mAb, not shown: another chain or arm of the molecule)
constant: B1 constant with K172T, Y324W
B6: canine IgGB (65) mAb with mutation Y436V (antibody, part only; not given: variable domains of unnamed mAb, not shown: another chain or arm of the molecule)
constant: B1 constant with K172T, Y324V

Target: canine FcRn complex (FcRn-alpha subunit and beta-microglobulin), His-tagged, biotin labeled (canine)
Experiment: SPR (Biacore), biotin-FcRn captured on SA surface, IgG flowed over, pH 6, 15 C

| Binder | Kd |
| --- | --- |
| B1 | 7.04 nM |
| B2 | 5.97 nM |
| B3 | 5.23 nM |
| B4 | 8.65 nM |
| B5 | 3.87 nM |
| B6 | 5.56 nM |
